B1: DARPin D1 H118R (protein)
chain: MRGSHHHHHHGSDLGKKLLEAARAGQDDEVRILMANGADVNATDASGLTPLHLAATYGHLEIVEVLLKHGADVNAIDIMGSTPLHLAALIGHLEIVEVLLKHGADVNAVDTWGDTPLRLAAIMGHLEIVEVLLKHGADVNAQDKFGKTAFDISIDNGNEDLAEILQKLN
B2: DARPin D1 I152T; N158S (protein)
chain: B1 chain with R118H, I152T, N158S
B3: DARPin D1 I32V; N74S; I76S; I78L; H118R; I122V; E127K; V131A; F150Y; I152T; N158S (protein)
chain: B1 chain with I32V, N74S, I76S, I78L, I122V, E127K, V131A, F150Y, I152T, N158S
B4: DARPin D1 N158S (protein)
chain: B1 chain with R118H, N158S
B5: DARPin D1 I152T (protein)
chain: B1 chain with R118H, I152T
B6: DARPin D1 H118R; I152T; N158S (protein)
chain: B1 chain with I152T, N158S
B7: DARPin D1 E127K; V131A (protein)
chain: B1 chain with R118H, E127K, V131A
B8: DARPin D1 F150Y; I152T; N158S (protein)
chain: B1 chain with R118H, F150Y, I152T, N158S
B9: DARPin D1 N74S; I76S; I78L (protein)
chain: B1 chain with N74S, I76S, I78L, R118H
B10: DARPin D1 I122V (protein)
chain: B1 chain with R118H, I122V
B11: DARPin D1 I32V (protein)
chain: B1 chain with I32V, R118H
B12: DARPin D1 V131A (protein)
chain: B1 chain with R118H, V131A
B13: DARPin D1 I78L (protein)
chain: B1 chain with I78L, R118H
B14: DARPin D1 E127K (protein)
chain: B1 chain with R118H, E127K
B15: DARPin D1 N74S (protein)
chain: B1 chain with N74S, R118H
B16: DARPin D1 I76S (protein)
chain: B1 chain with I76S, R118H
B17: DARPin D1 F150Y (protein)
chain: B1 chain with R118H, F150Y
B18: DARPin D1 H118R; I122V (protein)
chain: B1 chain with I122V

The source of these data is publication PMC4933879.

Changes are numbered by the printed parent chain. In names and notes the source's numbering stands.

The first test has as its target T1, tubulin covalently linked to a biotinylated stathmin-like peptide. The test is described as follows: ELISA. As to conditions: chain shown with the change; buffer incubation after binding; 2 nM biotinylated peptide-coupled tubulin for coating; parent: est. 0.082; read off a plot. For orientation: ELISA stands for enzyme-linked immunosorbent assay.
In the case of B1, the response turned out to be 0.71 AU.

As to B2, the response turned out to be 0.61 AU.

As to B3, the response was 0.72 AU.

Regarding B4, the response turned out to be 0.15 AU.

Consider B5, for which the response came out at 0.48 AU.

B6: the response came out at 0.75 AU.

Staying with this test, now noted: chain shown with the change; buffer incubation after binding; 10 nM biotinylated peptide-coupled tubulin for coating; parent: est. 0.32; read off a plot.
As for B1, the response is 0.76 AU.

Consider B7, for which the response was 0.31 AU.

As for B8, the response was determined as 0.75 AU.

With B9, the response came to 0.34 AU.

Regarding B10, the response came out at 0.22 AU.

With B11, the response worked out at 0.31 AU.

Take B12: the response turned out to be 0.24 AU.

For B13, the response came to 0.4 AU.

Take B14: the response stood at 0.42 AU.

As for B3, the response is 0.74 AU.

Turning to B15, the response was determined as 0.28 AU.

For B16, the response is 0.3 AU.

Regarding B4, the response turned out to be 0.59 AU.

For B17, the response turned out to be 0.26 AU.

Regarding B5, the response worked out at 0.79 AU.

Consider B18, for which the response was 0.73 AU.

A further test deals with T1, tubulin covalently linked to a …. The test is described as follows: ELISA (off-rate estimation). As to conditions: chain shown with the change; incubation with 100 nM soluble tubulin to prevent rebinding; 2 nM biotinylated peptide-coupled tubulin for coating; parent: est. 0.046; read off a plot.
Consider B1, for which the response is 0.45 AU.

In the case of B2, the response was 0.27 AU.

For B3, the response was 0.38 AU.

As to B4, the response is 0.045 AU.

Consider B5, for which the response was 0.075 AU.

Regarding B6, the response is 0.57 AU.

Still in this test, the particulars now being: chain shown with the change; incubation with 100 nM soluble tubulin to prevent rebinding; 10 nM biotinylated peptide-coupled tubulin for coating; parent: est. 0.11; read off a plot.
Take B1: the response was 0.76 AU.

Take B7: the response was 0.075 AU.

For B8, the response was 0.69 AU.

In the case of B9, the response is 0.18 AU.

Consider B10, for which the response is 0.12 AU.

For B11, the response is 0.11 AU.

For B12, the response is 0.1 AU.

For B13, the response was 0.13 AU.

Turning to B14, the response is 0.11 AU.

Take B3: the response was 0.74 AU.

In the case of B15, the response is 0.18 AU.

Take B16: the response is 0.15 AU.

B4: the response was 0.14 AU.

As for B17, the response is 0.13 AU.

Turning to B5, the response was 0.44 AU.

With B18, the response was 0.69 AU.
